# Key:
# GRB2 = GRB2 (UniProt P62993); experiment: FLAG affinity purification, Western blot; conditions: reference: wild type
# PTPN11/SHP2 = PTPN11/SHP2 (UniProt Q06124); experiment: FLAG affinity purification, Western blot; conditions: reference: wild type; sites Y241,Y263
substance,measurement,setting,value
MPZL1 (PZR) (from UniProt O95297) Y241F,binding against the reference,GRB2; sites Y241,weaker
MPZL1 (PZR) (from UniProt O95297) Y241F/Y263F,binding against the reference,PTPN11/SHP2,lost
MPZL1 (PZR) (from UniProt O95297) Y263F,binding against the reference,GRB2; sites Y263,weaker

# From publication PMC5599542
